Assay results as given in IntAct's records for PubMed 19357306.

B1: Aurora kinase A (Homo sapiens), O14965 (parent)
chain: MDRSKENCISGPVKATAPVGGPKRVLVTQQFPCQNPLPVNSGQAQRVLCPSNSSQRIPLQAQKLVSSHKPVQNQKQKQLQATSVPHPVSRPLNNTQKSKQPLPSAPENNPEEELASKQKNEESKKRQWALEDFEIGRPLGKGKFGNVYLAREKQSKFILALKVLFKAQLEKAGVEHQLRREVEIQSHLRHPNILRLYGYFHDATRVYLILEYAPLGTVYRELQKLSKFDEQRTATYITELANALSYCHSKRVIHRDIKPENLLLGSAGELKIADFGWSVHAPSSRRTTLCGTLDYLPPEMIEGRMHDEKVDLWSLGVLCYEFLVGKPPFEANTYQETYKRISRVEFTFPDFVTEGARDLISRLLKHNPSQRPMLREVLEHPWITANSSKPSNCQNKESASKQS

Variants of: B1
Conditions: with ince_human INCENP

Variant | effect of a mutation on the interaction
MDRSKENCISGPVKATAPVGGPKRVLVTQQFPCQNPLPVNSGQAQRVLCPSNSSQRIPLQAQKLVSSHKPVQNQKQKQLQATSVPHPVSRPLNNTQKSKQPLPSAPENNPEEELASKQKNEESKKRQWALEDFEIGRPLGKGKFGNVYLAREKQSKFILALKVLFKAQLEKAGVEHQLRREVEIQSHLRHPNILRLYVYFHDATRVYLILEYAPLGTVYRELQKLSKFDEQRTATYITELANALSYCHSKRVIHRDIKPENLLLGSAGELKIADFGWSVHAPSSRRTTLCGTLDYLPPEMIEGRMHDEKVDLWSLGVLCYEFLVGKPPFEANTYQETYKRISRVEFTFPDFVTEGARDLISRLLKHNPSQRPMLREVLEHPWITANSSKPSNCQNKESASKQS [G198V] | disrupting interaction strength
MDRSKENCISGPVKATAPVGGPKRVLVTQQFPCQNPLPVNSGQAQRVLCPSNSSQRIPLQAQKLVSSHKPVQNQKQKQLQATSVPHPVSRPLNNTQKSKQPLPSAPENNPEEELASKQKNEESKKRQWALEDFEIGRPLGKGKFGNVYLAREKQSKFILALKVLFKAQLEKAGVEHQLRREVEIQSHLRHPNILRLYAYFHDATRVYLILEYAPLGTVYRELQKLSKFDEQRTATYITELANALSYCHSKRVIHRDIKPENLLLGSAGELKIADFGWSVHAPSSRRTTLCGTLDYLPPEMIEGRMHDEKVDLWSLGVLCYEFLVGKPPFEANTYQETYKRISRVEFTFPDFVTEGARDLISRLLKHNPSQRPMLREVLEHPWITANSSKPSNCQNKESASKQS [G198A] | disrupting interaction strength
MDRSKENCISGPVKATAPVGGPKRVLVTQQFPCQNPLPVNSGQAQRVLCPSNSSQRIPLQAQKLVSSHKPVQNQKQKQLQATSVPHPVSRPLNNTQKSKQPLPSAPENNPEEELASKQKNEESKKRQWALEDFEIGRPLGKGKFGNVYLAREKQSKFILALKVLFKAQLEKAGVEHQLRREVEIQSHLRHPNILRLYLYFHDATRVYLILEYAPLGTVYRELQKLSKFDEQRTATYITELANALSYCHSKRVIHRDIKPENLLLGSAGELKIADFGWSVHAPSSRRTTLCGTLDYLPPEMIEGRMHDEKVDLWSLGVLCYEFLVGKPPFEANTYQETYKRISRVEFTFPDFVTEGARDLISRLLKHNPSQRPMLREVLEHPWITANSSKPSNCQNKESASKQS [G198L] | disrupting interaction strength

Variants of: B1
Conditions: with tpx2_human TPX2, Q9ULW0
tpx2_human TPX2, Q9ULW0, sequence (Q9ULW0 whole entry): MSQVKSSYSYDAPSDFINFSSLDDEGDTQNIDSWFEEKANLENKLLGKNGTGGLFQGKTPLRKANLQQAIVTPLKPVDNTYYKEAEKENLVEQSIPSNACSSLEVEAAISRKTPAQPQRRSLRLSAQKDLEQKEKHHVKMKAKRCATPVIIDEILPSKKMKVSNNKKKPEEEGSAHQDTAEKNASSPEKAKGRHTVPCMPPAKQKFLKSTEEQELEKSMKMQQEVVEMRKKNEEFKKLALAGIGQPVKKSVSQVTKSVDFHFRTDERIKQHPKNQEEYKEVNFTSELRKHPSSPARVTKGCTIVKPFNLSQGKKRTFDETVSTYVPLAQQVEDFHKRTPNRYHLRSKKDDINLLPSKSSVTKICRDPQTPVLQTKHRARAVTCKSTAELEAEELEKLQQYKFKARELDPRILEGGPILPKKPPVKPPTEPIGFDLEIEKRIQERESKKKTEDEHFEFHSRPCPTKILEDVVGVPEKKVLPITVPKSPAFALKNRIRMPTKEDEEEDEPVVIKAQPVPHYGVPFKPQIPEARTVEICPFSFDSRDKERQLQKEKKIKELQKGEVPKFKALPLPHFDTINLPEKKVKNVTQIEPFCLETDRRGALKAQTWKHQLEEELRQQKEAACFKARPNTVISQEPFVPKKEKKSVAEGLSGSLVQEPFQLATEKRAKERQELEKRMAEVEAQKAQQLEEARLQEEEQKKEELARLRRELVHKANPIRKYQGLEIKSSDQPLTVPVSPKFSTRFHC

Variant | effect of a mutation on the interaction
MDRSKENCISGPVKATAPVGGPKRVLVTQQFPCQNPLPVNSGQAQRVLCPSNSSQRIPLQAQKLVSSHKPVQNQKQKQLQATSVPHPVSRPLNNTQKSKQPLPSAPENNPEEELASKQKNEESKKRQWALEDFEIGRPLGKGKFGNVYLAREKQSKFILALKVLFKAQLEKAGVEHQLRREVEIQSHLRHPNILRLYNYFHDATRVYLILEYAPLGTVYRELQKLSKFDEQRTATYITELANALSYCHSKRVIHRDIKPENLLLGSAGELKIADFGWSVHAPSSRRTTLCGTLDYLPPEMIEGRMHDEKVDLWSLGVLCYEFLVGKPPFEANTYQETYKRISRVEFTFPDFVTEGARDLISRLLKHNPSQRPMLREVLEHPWITANSSKPSNCQNKESASKQS [G198N] | decreasing interaction
